Experimental data published in US20170369590A1 (Genmab, published 2017).
Where a chain is given by its changes, count along the chain named.

B1: HuMab 127 (antibody, V domains shown)
VH: EVQLVQSGAEVKKPGESLTISCKGSGYSFSIYWIGWVRQMPGKGLEWMGIIFPGDSDIRYSPSFQGQVTISADKSISTAYLQWSSLKASDTAMYYCARQPGDWSPRHWYFDLWGRGTLVTVSS
VL: VIWMTQSPSLLSASTGDRVTISCRMSQGISSYLAWYQQKPGKAPELLIYAASTLQSGVPSRFSGSGSGTDFTLTISYLQSEDFATYYCQQYYSFPLTFGGGTKVEIK
B2: HuMab 159 (antibody, V domains shown)
VH: EVQLVQSGAEVKKPGESLKISCKGSGYNFTSYWIGWVRQMPGKGLEWMGIIYPGDSDTRYSPSFQGQVTISADKSISTAYLQWSSLKASDTAMYYCARWGTYYDILTGYFNWFDPWGQGTLVTVSS
VL: DIQMTQSPSSLSASVGDRVTITCRASQGISSWLAWYQQKPEKAPKSLIYAASSLQSGVPSRFSGSGSGTDFTLTISSLQPEDFATYYCQQYYIYPWTFGQGTKVEIK
notes: also called TH1014-159; PC1014-159
B3: HuMab 169 (antibody, V domains shown)
VH: QVQLVQSGAEVKKPGASVKVSCKASGYTFTNYGISWVRQAPGQGLEWMGWLSAYSGNTIYAQKLQGRVTMTTDTSTTTAYMELRSLRSDDTAVYYCARDRIVVRPDYFDYWGQGTLVTVSS
VL: EIVLTQSPATLSLSPGERATLSCRASQSVSSYLAWYQQKPGQAPRLLIYDASNRATGIPARFSGSGSGTDFTLTISSLEPEDFAVYYCQQRSNWPRTFGQGTKVEIK
notes: also called TH1014-169; PC1014-169
B4: HuMab 025 (antibody, V domains shown)
VH: QVQLQQWGAGLLKPSETLSLTCAVYGGSFSDYYWNWIRQPPGKGLEWIGEIHHSGSTNYNPSLKSRVTISVDTSKNQFSLKLSSVTAADTAVYYCARGYYDSGVYYFDYWAQGTLVTVSS
VL: B2 VL with S31R, Q55R, Y92N, I93S, W96I, K103R, V104L
notes: also called TH1014-025; PC1014-025
B5: HuMab 091 (antibody, V domains shown)
VH: QVQLQQWGAGLLKPSETLSLTCAVSGGSFSGYYWTWIRQPPGKGLEWIGEIYHSGDTNYNPSLKSRVTISVDTSKNQFSLKLYSVTAADTAVYYCARLYFGSGIYYLDYWGQGTLVTVSS
VL: B2 VL with A34V, Y92N, I93S, Y94F, W96P
notes: also called TH1014-091; PC1014-091
B6: HuMab 084 (antibody, V domains shown)
VH: QVQLVQSGAEVKKPGSSVKVSCKASGGTFRTYAINWVRQAPGQGLEWMGRINTVLGIVNHAQKFQGRVTITADKSTNTAYMELNSLRSEDTAVYYCAREKGVDYYYGIEVWGQGTTVTVSS
VL: DIQMTQSPSSVSASVGDRVTITCRASQGISSWLAWYQHKPGKAPKLLIYVASTLQSGVPSRFSGSGSGTDFTLTISSLQPEDFATYYCQQANSFPLTFGGGTKVEIK
notes: also called TH1014-084; PC1014-084
B7: HuMab 050 (antibody, V domains shown)
VH: EVQLLESGGGLVQPGGSLRLSCAASGFTFSSYAMNWVRQAPGKGLEWVSAISGRGGTTYYADSVKGRFTISRDNSKNTLYLQMSSLRAEDTAVYYCAKARANWDYFDYWGQGTLVTVSS
VL: B6 VL with V50A, T53I, L96I, G100Q, K103R, V104L
notes: also called TH1014-050; PC1014-050
B8: HuMab 129 (antibody, V domains shown)
VH: QVQLVESGGGVVQPGRSLRLSCAASGFTFSTFAIHWVRQAPGKGLEWVAVISYDGGHKFYADSVKGRFTISRDNSKNTLYLQMNSLRAEDTAMYYCARGLGVWGAFDYWGQGTLVTVSS
VL: EIVLTQSPATLSLSPGERATLSCRASQSVSSYLAWYQQKPGQAPRLLIYDASNRATGIPARFSGSGSGTDFTLTISSLEPEDFAVYYCQQRSNWWTFGQGTKVEIK

Target: T1, HER2ECDHis (human, UniProt P04626 23-653, biotinylated in the cross-block ELISA (sites not given))
T1 construct: range 1-653; expressed in HEK-293F; also called soluble HER2; biotinylated HER2ECDHis
Assay: ELISA; competitor C1

Binder | % binding vs no competitor [%]
B1 | 112
B2 | 96

Target: T1, HER2ECDHis
Assay: ELISA; competitor F5
Procedure: (§1) Next, the ELISA wells were washed with PBST (PBS supplemented with 0.05% Tween-20 [Sigma-Aldrich, Zwijndrecht, The Netherlands]) and blocked for one hour at room temperature (RT) with PBSTC (PBST supplemented 2% [v/v] chicken serum [Gibco, Paisley, Scotland]). The ELISA wells were then washed with PBST and incubated for one hour at RT with HER2ECDHis serially diluted in PBSTC (0.25-2 μg/mL in 2-fold dilutions). […] The plate was thereafter washed with PBST and incubated for one hour with 0.1 μg/mL Streptavidin-poly-HRP (Sanquin, Amsterdam, The Netherlands) diluted in PBST. After washing, the reaction was visualized through a 15 minutes incubation with 2,2′-azino-bis (3-ethylbenzothiazoline-6-sulfonic acid) (ABTS: one ABTS tablet diluted in 50 mL ABTS buffer (Roche Diagnostics, Almere, The Netherlands)) at RT protected from light. The colorization was stopped by adding an equal volume of oxalic acid (Sigma-Aldrich, Zwijndrecht, The Netherlands). Fluorescence at 405 nm was measured on a microtiter plate reader (Biotek Instruments, Winooski, USA).
(§2) Each HER2 antibody was coated to the ELISA wells at the sub-optimal dose that was determined as described above. After blocking of the ELISA wells, the wells were incubated with the predetermined concentration of 1 μg/mL biotinylated HER2ECDHis in the presence or absence of an excess of a second (competitor) HER2 antibody. The ELISA was then performed as described above. […] Percentage competition was then determined as 100 minus the percentage of inhibition.

Binder | % binding vs no competitor [%]
B1 | 88
B2 | 86

Target: T1, HER2ECDHis
Assay: ELISA; competitor 025
Procedure: as §1, §2

Binder | % binding vs no competitor [%]
B3 | 98
B4 | 18
B5 | 13
B6 | 106
B7 | 104
B8 | 55

Target: T1, HER2ECDHis
Assay: ELISA; competitor 050
Procedure: as §1, §2

Binder | % binding vs no competitor [%]
B3 | 21
B4 | 100
B5 | 95
B6 | 76
B7 | 12
B8 | 97

Target: T1, HER2ECDHis
Assay: ELISA; competitor 084
Procedure: as §1, §2

Binder | % binding vs no competitor [%]
B3 | 73
B4 | 104
B5 | 100
B6 | 20
B7 | 74
B8 | 92

Target: T1, HER2ECDHis
Assay: ELISA; competitor 091
Procedure: as §1, §2

Binder | % binding vs no competitor [%]
B3 | 105
B4 | 21
B5 | 15
B6 | 104
B7 | 98
B8 | 76

Target: T1, HER2ECDHis
Assay: ELISA; competitor 098
Procedure: as §1, §2

Binder | % binding vs no competitor [%]
B1 | 58
B3 | 105
B2 | 11
B4 | 102
B5 | 98
B6 | 109
B7 | 102
B8 | 106

Target: T1, HER2ECDHis
Assay: ELISA; competitor 127
Procedure: as §1, §2

Binder | % binding vs no competitor [%]
B1 | 11
B2 | 15

Target: T1, HER2ECDHis
Assay: ELISA; competitor 129
Procedure: as §1, §2

Binder | % binding vs no competitor [%]
B3 | 106
B4 | 15
B5 | 78
B6 | 104
B7 | 110
B8 | 12

Target: T1, HER2ECDHis
Assay: ELISA; competitor 132
Procedure: as §1, §2

Binder | % binding vs no competitor [%]
B1 | 44
B2 | 79

Target: T1, HER2ECDHis
Assay: ELISA; competitor 153
Procedure: as §1, §2

Binder | % binding vs no competitor [%]
B1 | 21
B3 | 102
B2 | 40
B4 | 99
B5 | 98
B6 | 98
B7 | 104
B8 | 98

Target: T1, HER2ECDHis
Assay: ELISA; competitor 159
Procedure: as §1, §2

Binder | % binding vs no competitor [%]
B1 | 8
B2 | 6

Target: T1, HER2ECDHis
Assay: ELISA; competitor 169
Procedure: as §1, §2

Binder | % binding vs no competitor [%]
B3 | 45
B4 | 98
B5 | 99
B6 | 73
B7 | 30
B8 | 99

Target: T1, HER2ECDHis
Assay: ELISA; competitor pert
Procedure: as §1, §2

Binder | % binding vs no competitor [%]
B3 | 101
B2 | 112
B4 | 8
B5 | 5
B6 | 101
B7 | 95
B8 | 22

Target: T1, HER2ECDHis
Assay: ELISA; competitor tras
Procedure: as §1, §2

Binder | % binding vs no competitor [%]
B1 | 102
B3 | 19
B2 | 111
B4 | 98
B5 | 99
B6 | 74
B7 | 13
B8 | 93

Target: T2, human epidermal growth factor receptor 2 (HER2), membrane-bound on cells (human, UniProt P04626 23-1255)
Assay: cell-based or functional assay

Binder | % cells killed, AU565, anti-kappa-ETA'-conjugated [%] | EC50 of cell kill, AU565, anti-kappa-ETA'-conjugated [µg/mL]
B1 | 69 | 0.0345
B3 | 49.9 | 0.0356
B2 | 70.3 | 0.0349
B4 | 60 | 0.0167
B5 | 50.6 | 0.0465
B6 | 58.1 | 0.027
B7 | 52.4 | 0.0127
B8 | 60.8 | 0.0309

Target: T2, human epidermal growth factor receptor …
Assay: cell-based or functional assay
Remark: another data set of the same source

Binder | % cells killed, A431, anti-kappa-ETA'-conjugated [%] | EC50 of cell kill, A431, anti-kappa-ETA'-conjugated [µg/mL]
B3 | 34 | –
B4 | 86.7 | ~0.00977
B5 | 83.3 | ~0.00986
B6 | 50.5 | –
B8 | 75.9 | ~0.0106

Target: T2, human epidermal growth factor receptor …
Assay: cell-based or functional assay
Remark: another data set of the same source

Binder | EC50, fab-CypHer5E internalization, AU565 [µg/mL] | Maximal MFI, fab-CypHer5E internalization, AU565 [MFI]
B1 | ~0.00968 | 138000
B3 | – | 38800
B2 | – | 92400
B4 | 0.0301 | 63400
B5 | 0.033 | 50700
B6 | 0.0305 | 71100
B8 | 0.00715 | 60300
